Data published in doi:10.1101/2021.07.15.452465 (2021).
Read-outs that look alike come from different tables or passages of the source.

B1: A. fumigatus HapX^24-158 wild type (domain or fragment)
chain: SPSPGPGTPGSITSKEWVIPPRPKPGRKPATDTPPTKRKAQNRAAQRAFRERRAARVNELEEQIKKIEDEHEIHIAAFKEQITNLSREVEQCRSEMTWWRDRCHALEKEVSVERSAKEAIVKEFRSSLSDREAVR
B2: A. fumigatus CBC consisting of the subunits HapB^230-299, HapC^40-137 and HapE^47-164 (complex)
chain 1: not shown
chain 2: KEQDRWLPIANVARIMKLALPENAKIAKEAKECMQECVSEFISFITSEASEKCQQEKRKTVNGEDILFAMTSLGFENYAEALKIYLSKYRETQSARGE
chain 3: GTWANVNQGLQGTARDILTTYWQHIINHLESDNHDYKIHQLPLARIKKVMKADPEVKMISAEAPILFAKGCDIFITELTMRAWIHAEDNKRRTLQRSDIAAALSKSDMFDFLIDIVPR

Tests used:
[1] = biological target: B2; assay: SPR
[2] = biological target: B2; assay: SPR; remark: listed apart in the source
[3] = biological target: B2; assay: SPR; remark: listed apart in the source
[4] = biological target: B2; assay: SPR; remark: listed apart in the source
[5] = biological target: A. fumigatus HapX^24-158 R45A (Aspergillus fumigatus, UniProt Q4WER3 24-158, R45A); assay: SPR; CBC preformed on AfucccA 37 bp DNA
[6] = biological target: A. fumigatus HapX^24-158 W40A (Aspergillus fumigatus, UniProt Q4WER3 24-158, W40A); assay: SPR; CBC preformed on AfucccA 37 bp DNA
[7] = biological target: A. fumigatus HapX^24-158 R50A (Aspergillus fumigatus, UniProt Q4WER3 24-158, R50A); assay: SPR; CBC preformed on AfucccA 37 bp DNA
[8] = biological target: T1, A. fumigatus HapX^24-158 ΔT36-I42 (Aspergillus fumigatus, UniProt Q4WER3 24-158, ΔT36-I42); assay: SPR; CBC preformed on AfucccA 37 bp DNA
[9] = biological target: A. fumigatus HapX^24-158 K38E (Aspergillus fumigatus, UniProt Q4WER3 24-158, K38E); assay: SPR; CBC preformed on AfucccA 37 bp DNA
[10] = biological target: T1, A. fumigatus HapX^24-158 ΔT36-I42; assay: SPR; CBC preformed on Afucyp51A 37 bp DNA

Binder	Kd [1]	Kd [2]	Kd [3]	Kd [4]	Kd [5]	Kd [6]	Kd [7]	Kd [8]	Kd [9]	Kd [10]
B1	28.3 nM	0.9 nM	0.34 nM	22.7 nM						
B2					2.86 nM	13.2 nM	3.93 nM	136 nM	3.76 nM	511 nM
